Data on three molecules can be found in US20250376511A1 (Sanofi, published 2025).

Read-outs that look alike come from different tables or passages of the source.

The target of assay [1] is T1, Human active C1s (Complement Technology) (human, UniProt P09871 16-688).
T1 construct: In the functional assays the target is the C1s of human serum; also called aC1s; human aC1s
T1 sequence: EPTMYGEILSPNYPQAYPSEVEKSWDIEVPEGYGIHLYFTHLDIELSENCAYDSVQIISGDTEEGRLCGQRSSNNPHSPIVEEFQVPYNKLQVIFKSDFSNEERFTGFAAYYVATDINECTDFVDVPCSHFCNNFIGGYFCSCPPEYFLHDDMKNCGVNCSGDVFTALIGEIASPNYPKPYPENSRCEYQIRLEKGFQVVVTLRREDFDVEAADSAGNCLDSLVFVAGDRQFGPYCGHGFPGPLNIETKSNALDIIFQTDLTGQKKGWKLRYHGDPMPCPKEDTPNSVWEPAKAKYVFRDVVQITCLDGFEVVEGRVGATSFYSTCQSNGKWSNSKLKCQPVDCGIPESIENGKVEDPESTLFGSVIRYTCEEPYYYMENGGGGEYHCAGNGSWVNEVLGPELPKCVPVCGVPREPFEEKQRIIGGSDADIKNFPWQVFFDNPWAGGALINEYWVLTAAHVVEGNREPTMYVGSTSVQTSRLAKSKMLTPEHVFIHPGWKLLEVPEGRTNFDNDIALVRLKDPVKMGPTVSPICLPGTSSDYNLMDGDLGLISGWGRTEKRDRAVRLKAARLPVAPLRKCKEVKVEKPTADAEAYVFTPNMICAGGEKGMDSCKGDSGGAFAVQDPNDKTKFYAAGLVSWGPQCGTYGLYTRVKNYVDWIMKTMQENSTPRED
Description: SPR Biacore T200, antibody captured on anti-human Fc, human active C1s as analyte, 1:1 fit. How it is done:
(§1) TfR and C1s binding using surface plasmon resonance (SPR): Analysis of antibody binding to TfR was performed on a Biacore™ T200 instrument using anti-His capture at 25° C. Anti-His (Qiagen) was buffer exchanged into PBS pH 7.2, diluted to 25 μg/mL in 10 mM sodium acetate pH 4.0 and directly immobilized to a series S CM5 chip to a surface density of ˜10,000 RU using the amine coupling kit provided by Cytiva. His-tagged recombinant human TfR (produced in-house) was diluted in HBS-EP+ pH 7.4 running buffer (10 mM HEPES pH 7.4, 150 mM NaCl, 3 mM EDTA, 0.05% surfactant P20) and injected for 5 sec at 20 μL/min flowrate to obtain capture level of 20 RU. Antibodies were serially diluted 2-fold from 90 to 5.625 nM in running buffer and injected over the captured TfR for 3 min followed by 9 min dissociation in buffer at 30 μL/min. Each cycle was regenerated with 10 mM glycine pH 1.5. To measure C1s binding, anti-human Fc (Jackson) was directly immobilized to a CM5 chip using amine chemistry. Antibodies were diluted to 2.5 μg/mL in HBS-EP+ pH 7.4 and captured to the chip for 15 sec at 20 μL/min flowrate. Human active C1s (Complement Technology) was serially diluted 2-fold from 20 to 0.625 nM in running buffer and injected over the captured antibodies for 180 sec at 50 μL/min followed by 9 min dissociation in buffer. The bound complex was removed from the chip each cycle with 40 mM HCl and 0.85% phosphoric acid. Sensorgrams were processed using the Biacore™ Insight software and fit to a 1:1 binding model to obtain kinetic constants.
(§2) The six bispecific anti-aC1s/anti-TfR antibodies were first tested for their affinity for both TfR and aC1s via surface plasmon resonance (SPR) (Table 2).

Assay [2] has as its target T2, His-tagged recombinant human TfR (produced in-house) (human, UniProt P02786 89-760).
T2 construct: also called hTfR; transferrin receptor 1
Put plainly: SPR Biacore T200, His-tagged human TfR captured on anti-His, antibody as analyte, 25 C, 1:1 fit. On the procedure:
as §1, §2

The target in assay [3] is T1, Human active C1s (Complement Technology). Put plainly: cell-based or functional assay.
Assay [4] has the same target. Description: cell-based or functional assay. This is another data set of the same source.
Assay [5] shares this target. Put plainly: cell-based or functional assay. The source holds these as a separate data set.

T2 sequence (P02786 89-760 limits assumed): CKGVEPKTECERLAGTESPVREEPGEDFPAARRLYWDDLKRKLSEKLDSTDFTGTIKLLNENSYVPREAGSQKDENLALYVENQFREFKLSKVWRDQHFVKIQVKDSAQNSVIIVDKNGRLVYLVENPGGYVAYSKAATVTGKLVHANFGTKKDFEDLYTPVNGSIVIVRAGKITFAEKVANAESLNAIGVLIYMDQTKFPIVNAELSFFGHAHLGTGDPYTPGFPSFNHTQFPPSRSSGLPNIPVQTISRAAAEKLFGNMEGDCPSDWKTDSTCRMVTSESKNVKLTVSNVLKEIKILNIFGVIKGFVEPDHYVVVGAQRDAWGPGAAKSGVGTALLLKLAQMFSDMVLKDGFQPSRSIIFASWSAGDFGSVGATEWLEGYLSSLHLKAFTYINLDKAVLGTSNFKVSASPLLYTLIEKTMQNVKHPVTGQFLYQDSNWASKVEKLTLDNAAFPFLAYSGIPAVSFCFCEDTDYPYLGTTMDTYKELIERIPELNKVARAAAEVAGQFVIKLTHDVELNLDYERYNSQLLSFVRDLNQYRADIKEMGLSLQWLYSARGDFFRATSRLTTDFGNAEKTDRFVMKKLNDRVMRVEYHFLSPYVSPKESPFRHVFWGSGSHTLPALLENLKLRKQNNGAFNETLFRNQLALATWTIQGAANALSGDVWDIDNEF

B1: aC1s_088 × 531v25.v6 IgG1-NNAS/dK (bispecific antibody, V domains shown)
VH 1: QVQLVQSGAEVKKPGASVKLSCTASGFNIKDDYIHWVKEAPGQGLEWIGRIDPADGHTKYAPKFQVKVTITADTSTSTAYLELSSLRSEDTAVYYCARYGYGREVFDYWGQGTTVTVSS
VL 1: DIVLTQSPDSLAVSLGERATISCKASQSVDYDGDSYMNWYQKKPGQPPKILIYDASNLESGIPARFSGSGSGTDFTLTISSLEPEDFAIYYCQQSNEDPWTFGGGTKVEIK
VH 2: QVQLVQSGAEVKKPGASVKVSCKASGYTFTRYYLNWVRKAPGQGLEWIGMIDPSVSETHYAQKFQGRATLTVDKSTSTAYMELSSLRSEDTAVYYCSQIRLPYYYAMDSWGQGTTVTVSS
VL 2: DIQMTQSPSSLSASVGDRVTITCRASQDIESFLNWYQEKPGKAPKLLIYYTSRLQSGVPSRFSGSGSGTDYTLTISSLQPEDFATYYCQQGNTLPRTFGGGTKVEIK
notes: IgG1-NNAS Fc, dK, with charge pairing mutations; The starred variable domains are used, as for m5
In assay [1], B1 displayed an equilibrium dissociation constant (Kd) of 0.00069 µM, a koff of 0.00272 s⁻¹ and a kon of 3.96e+06 M⁻¹ s⁻¹. For the same molecule, in assay [2], the dissociation constant Kd came out at 0.0203 µM, the koff was determined as 0.00332 s⁻¹ and the kon worked out at 164000 M⁻¹ s⁻¹. For the same molecule, the “IC50, Wieslab Complement Pathway Assay (classical pathway, 1% NHS)” value (shortened to “IC50 … (classical pathway, 1% NHS)”) in assay [3] was found to be 1.78 mg/L. The “IC50, C3d deposition on neurons in iPSC tricultures with serum” value in assay [4] turned out to be 12.8 mg/L.

B2: aC1s_088 IgG1-dK (antibody, V domains shown)
VH: QVQLVQSGAEVKKPGASVKLSCTASGFNIKDDYIHWVKQAPGQGLEWIGRIDPADGHTKYAPKFQVKVTITADTSTSTAYLELSSLRSEDTAVYYCARYGYGREVFDYWGQGTTVTVSS
VL: DIVLTQSPDSLAVSLGERATISCKASQSVDYDGDSYMNWYQQKPGQPPKILIYDASNLESGIPARFSGSGSGTDFTLTISSLEPEDFAIYYCQQSNEDPWTFGGGTKVEIK
Regarding B2, the “IC50 … (classical pathway, 1% NHS)” value in assay [5] came out at 0.84 mg/L.

B3: aC1s_088 × 531v25 IgG1-NNAS/dK (bispecific antibody, V domains shown)
VH 1: QVQLVQSGAEVKKPGASVKLSCTASGFNIKDDYIHWVKEAPGQGLEWIGRIDPADGHTKYAPKFQVKVTITADTSTSTAYLELSSLRSEDTAVYYCARYGYGREVFDYWGQGTTVTVSS
VL 1: DIVLTQSPDSLAVSLGERATISCKASQSVDYDGDSYMNWYQKKPGQPPKILIYDASNLESGIPARFSGSGSGTDFTLTISSLEPEDFAIYYCQQSNEDPWTFGGGTKVEIK
VH 2: QVQLVQSGAEVKKPGASVKVSCKASGYTFTRYYLNWVRKAPGQGLEWIGMIDPSVSETHYAQKFQGRATLTVDKSTSTAYMELSSLRSEDTAVYYCSQIRLPYYYAMDSWGQGTTVTVSS
VL 2: DIQMTQSPSSLSASVGDRVTITCRASQDISSFLNWYQEKPGKAPKLLIYYTSRLQSGVPSRFSGSGSGTDYTLTISSLQPEDFATYYCQQGNTLPRTFGGGTKVEIK
notes: as for B1
As for B3, in assay [1], the affinity, expressed as Kd, was 0.00068 µM; the off-rate constant (koff) stood at 0.00285 s⁻¹; the kon stood at 4.22e+06 M⁻¹ s⁻¹. In assay [2], the equilibrium dissociation constant (Kd) came out at 0.0246 µM, the dissociation rate constant (koff) was 0.0049 s⁻¹ and the kon was 199000 M⁻¹ s⁻¹. Besides, the “IC50 … (classical pathway, 1% NHS)” value in assay [3] came out at 2.02 mg/L. Further, in assay [4], the “IC50, C3d deposition on neurons in iPSC tricultures with serum” value came to 29.7 mg/L.
